B1: Anti-IL-6 antibody, heavy chain S35H, G66D, L100F / light chain M32L, M50D, N52S, M88Q (antibody, IgG1, V domains shown)
VH: EVQLVESGGGLVQPGGSLRLSCAASGFTFSPFAMHWVRQAPGKGLEWVAKISPGGSWTYYSDTVTDRFTFSLDTSKSTAYLQMNSLRAEDTAVYYCARQFWGYYALDIWGQGTLVTVSS
VL: DIQLTQSPSSLSASVGDRVTITCSASISVSYLYWYQQKPGKAPKLLIYDDSSLASGVPSRFSGSGSGTDFTLTISSLQPEDFATYYCQQWSGYPYTFGQGTKVEIK
notes: IgG1; variable domains only; VL is variant III
B2: Anti-IL-6 antibody, heavy chain S35H, G66D, L100I / light chain WT (antibody, IgG1, V domains shown)
VH: B1 VH with F100I
VL: B1 VL with L32M, D50M, S52N, Q88M
notes: IgG1; variable domains only
B3: Anti-IL-6 antibody, heavy chain S35H, G66D, L100W / light chain M32L, M50D, N52S, M88Q (antibody, IgG1, V domains shown)
VH: B1 VH with F100W
VL: B1 VL
notes: as for B1
B4: Anti-IL-6 antibody, heavy chain S35H, G66D, L100R / light chain WT (antibody, IgG1, V domains shown)
VH: B1 VH with F100R
VL: B1 VL with L32M, D50M, S52N, Q88M
notes: IgG1; variable domains only
B5: Anti-IL-6 antibody, heavy chain S35H, G66D, L100T / light chain WT (antibody, IgG1, V domains shown)
VH: B1 VH with F100T
VL: B1 VL with L32M, D50M, S52N, Q88M
notes: IgG1; variable domains only
B6: Anti-IL-6 antibody, heavy chain S35H, G66D, L100H / light chain M32L, M50D, N52S, M88Q (antibody, IgG1, V domains shown)
VH: B1 VH with F100H
VL: B1 VL
notes: as for B1
B7: Anti-IL-6 antibody, heavy chain S35H, G66D, L100Q / light chain WT (antibody, IgG1, V domains shown)
VH: B1 VH with F100Q
VL: B1 VL with L32M, D50M, S52N, Q88M
notes: IgG1; variable domains only
B8: Anti-IL-6 antibody, heavy chain S35H, G66D, L100K / light chain WT (antibody, IgG1, V domains shown)
VH: B1 VH with F100K
VL: B1 VL with L32M, D50M, S52N, Q88M
notes: IgG1; variable domains only
B9: Anti-IL-6 antibody, heavy chain S35H, G66D, L100Y / light chain WT (antibody, IgG1, V domains shown)
VH: B1 VH with F100Y
VL: B1 VL with L32M, D50M, S52N, Q88M
notes: IgG1; variable domains only
B10: Anti-IL-6 antibody, heavy chain S35H, G66D, L100S / light chain WT (antibody, IgG1, V domains shown)
VH: B1 VH with F100S
VL: B1 VL with L32M, D50M, S52N, Q88M
notes: IgG1; variable domains only
B11: Anti-IL-6 antibody, heavy chain S35H, G66D, L100P / light chain M32L, M50D, N52S, M88Q (antibody, IgG1, V domains shown)
VH: B1 VH with F100P
VL: B1 VL
notes: as for B1
B12: Anti-IL-6 antibody, heavy chain S35H, G66D, Q99E / light chain WT (antibody, IgG1, V domains shown)
VH: B1 VH with Q99E, F100L
VL: B1 VL with L32M, D50M, S52N, Q88M
notes: IgG1; variable domains only
B13: Anti-IL-6 antibody, heavy chain S35H, G66D, Q99E / light chain M32L, M50D, N52S, M88Q (antibody, IgG1, V domains shown)
VH: B1 VH with Q99E, F100L
VL: B1 VL
notes: as for B1
B14: Anti-IL-6 antibody, heavy chain S35H, G66D, Q99D / light chain M32L, M50D, N52S, M88Q (antibody, IgG1, V domains shown)
VH: B1 VH with Q99D, F100L
VL: B1 VL
notes: as for B1
B15: Anti-IL-6 antibody, heavy chain S35H, G66D, L100H / light chain WT (antibody, IgG1, V domains shown)
VH: B1 VH with F100H
VL: B1 VL with L32M, D50M, S52N, Q88M
notes: IgG1; variable domains only
B16: Anti-IL-6 antibody, heavy chain S35H, G66D, L100Y / light chain M32L, M50D, N52S, M88Q (antibody, IgG1, V domains shown)
VH: B1 VH with F100Y
VL: B1 VL
notes: as for B1
B17: Anti-IL-6 antibody, heavy chain S35H, G66D, L100G / light chain WT (antibody, IgG1, V domains shown)
VH: B1 VH with F100G
VL: B1 VL with L32M, D50M, S52N, Q88M
notes: IgG1; variable domains only
B18: Anti-IL-6 antibody, heavy chain S35H, G66D, L100V / light chain WT (antibody, IgG1, V domains shown)
VH: B1 VH with F100V
VL: B1 VL with L32M, D50M, S52N, Q88M
notes: IgG1; variable domains only
B19: Anti-IL-6 antibody, heavy chain S35H, G66D, Q99D / light chain WT (antibody, IgG1, V domains shown)
VH: B1 VH with Q99D, F100L
VL: B1 VL with L32M, D50M, S52N, Q88M
notes: IgG1; variable domains only
B20: Anti-IL-6 antibody, heavy chain S35H, G66D, L100F / light chain WT (antibody, IgG1, V domains shown)
VH: B1 VH
VL: B1 VL with L32M, D50M, S52N, Q88M
notes: IgG1; variable domains only
B21: Anti-IL-6 antibody, heavy chain S35H, G66D, Q99A / light chain M32L, M50D, N52S, M88Q (antibody, IgG1, V domains shown)
VH: B1 VH with Q99A, F100L
VL: B1 VL
notes: as for B1
B22: Anti-IL-6 antibody, heavy chain S35H, G66D, L100R / light chain M32L, M50D, N52S, M88Q (antibody, IgG1, V domains shown)
VH: B1 VH with F100R
VL: B1 VL
notes: as for B1
B23: Anti-IL-6 antibody, heavy chain S35H, G66D, L100I / light chain M32L, M50D, N52S, M88Q (antibody, IgG1, V domains shown)
VH: B1 VH with F100I
VL: B1 VL
notes: as for B1
B24: Anti-IL-6 antibody, heavy chain S35H, G66D, Q99A / light chain WT (antibody, IgG1, V domains shown)
VH: B1 VH with Q99A, F100L
VL: B1 VL with L32M, D50M, S52N, Q88M
notes: IgG1; variable domains only

Where a chain is given by its changes, count along the chain named. Numbers in names are those of the source.

The target of this assay is human IL-6 (human, UniProt P05231 30-212). The assay can be described thus: SPR Biacore, supernatant, Protein A capture, 37 C. The protocol: Those four positions were selected based on their tolerance for mutations as observed in bacterial and mammalian screens. […] These cultures were centrifuged and supernatants containing secreted antibodies were harvested and diluted in HBS-EP+ running buffer (1:20 ratio).
Sequence of human IL-6 (P05231 30-212 limits assumed): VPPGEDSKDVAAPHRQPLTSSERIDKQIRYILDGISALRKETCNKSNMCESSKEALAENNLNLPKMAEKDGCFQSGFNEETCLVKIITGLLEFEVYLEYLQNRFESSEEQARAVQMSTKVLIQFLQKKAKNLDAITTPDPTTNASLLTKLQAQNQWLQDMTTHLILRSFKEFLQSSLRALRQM
Antibodies were captured on a Protein A chip (GE) by injecting 1:20 cell supernatant dilutions at 10 μL/min for 60 seconds. […] The sensor chip was regenerated by a 60 seconds injection of 10 mM Glycine pH 1.7 at the flow rate of 50 μL/min. […] For this setup, 1 μg/mL of purified antibody was injected over a Protein A chip at 10 μL/min for 25 seconds. […] The sensor chip was regenerated by a 60 seconds injection of 10 mM Glycine pH 1.7 at flow rate of 50 μL/min. Data analysis for supernatant and purified samples were performed using BIAevaluation software (GE). All sensorgrams were double reference subtracted and fit using a 1:1 Langmuir binding model.
On the technique in general: In SPR one partner is held on a chip, and binding of the other changes the refractive index at the surface.
In general, Kd refers to the free concentration of one partner at which half of the binding sites on the other are occupied at equilibrium, for simple one-to-one binding. A low value points to higher affinity. As a reminder, the koff is a measure of how fast the partners let go of each other. A low value points to a long-lived complex. A word on the kon: it is the rate constant with which the complex forms. A low value points to slower complex formation. B1 had a Kd of 0.422 nM, a koff of 0.000614 s⁻¹ and a kon of 1.46e+06 M⁻¹ s⁻¹.

B2 showed a Kd of 0.692 nM, a koff of 0.000644 s⁻¹ and an association rate constant (kon) of 931000 M⁻¹ s⁻¹.

Molecule B3 yielded a Kd of 1.98 nM, a dissociation rate constant (koff) of 0.00124 s⁻¹ and a kon of 625000 M⁻¹ s⁻¹.

B4 had a Kd of 1.01 nM, a dissociation rate constant (koff) of 0.000957 s⁻¹ and a kon of 951000 M⁻¹ s⁻¹.

The molecule B5 showed a Kd of 0.217 nM, a koff of 0.000724 s⁻¹ and an association rate constant (kon) of 3.34e+06 M⁻¹ s⁻¹.

As for B6, the affinity, expressed as Kd, was 0.83 nM; the koff is 0.00129 s⁻¹; the kon was 1.55e+06 M⁻¹ s⁻¹.

B7 showed a dissociation constant Kd of 0.18 nM, a koff of 0.00064 s⁻¹ and a kon of 3.56e+06 M⁻¹ s⁻¹.

Turning to B8, the Kd amounted to 0.18 nM, the off-rate (koff) was determined as 0.00106 s⁻¹ and the association rate constant (kon) was 5.88e+06 M⁻¹ s⁻¹.

For the molecule B9, binding was characterised by a dissociation constant (Kd) of 0.638 nM, the koff was 0.000642 s⁻¹ and the kon worked out at 1.01e+06 M⁻¹ s⁻¹.

Molecule B10 displayed a Kd of 0.196 nM, a koff of 0.000644 s⁻¹ and a kon of 3.28e+06 M⁻¹ s⁻¹.

Molecule B11 gave an equilibrium dissociation constant (Kd) of 4.66 nM, a koff of 0.00354 s⁻¹ and an on-rate (kon) of 759000 M⁻¹ s⁻¹.

For the molecule B12, the Kd was 3.91 nM, the koff was 0.00193 s⁻¹ and the kon was determined as 493000 M⁻¹ s⁻¹.

In the case of B13, the Kd was found to be 4.71 nM, the koff amounted to 0.00089 s⁻¹ and the kon turned out to be 189000 M⁻¹ s⁻¹.

As to B14, the Kd is 3.61 nM.

The molecule B15 gave an equilibrium dissociation constant (Kd) of 0.688 nM, a koff of 0.000498 s⁻¹ and a kon of 723000 M⁻¹ s⁻¹.

Molecule B16 gave a Kd of 0.934 nM, an off-rate (koff) of 0.000801 s⁻¹ and a kon of 858000 M⁻¹ s⁻¹.

In the case of B17, the Kd was 0.3 nM, the koff amounted to 0.00096 s⁻¹ and the kon came out at 3.2e+06 M⁻¹ s⁻¹.

The molecule B18 had a dissociation constant Kd of 0.244 nM, a koff of 0.000579 s⁻¹ and a kon of 2.37e+06 M⁻¹ s⁻¹.

B19: the Kd worked out at 2.34 nM, the koff was 0.00302 s⁻¹ and the kon was 1.29e+06 M⁻¹ s⁻¹.

B20: the dissociation constant (Kd) is 0.244 nM, the koff turned out to be 0.000612 s⁻¹ and the on-rate constant (kon) turned out to be 2.51e+06 M⁻¹ s⁻¹.

B21: binding was characterised by a dissociation constant (Kd) of 3.07 nM, the koff was 0.0045 s⁻¹ and the kon was found to be 1.47e+06 M⁻¹ s⁻¹.

B22 had a Kd of 0.878 nM, a koff of 0.00116 s⁻¹ and a kon of 1.32e+06 M⁻¹ s⁻¹.

Take B23: the equilibrium dissociation constant (Kd) amounted to 0.372 nM, the koff turned out to be 0.000712 s⁻¹ and the kon was determined as 1.91e+06 M⁻¹ s⁻¹.

On to B24, for which the Kd was found to be 0.717 nM, the koff worked out at 0.00132 s⁻¹ and the kon was found to be 1.85e+06 M⁻¹ s⁻¹.

These data come from patent US20240209076A1 (KODIAK SCIENCES, published 2024).
